# Measurements taken from the DeepSol protein solubility set.
# Test: soluble on expression in E. coli; label from the status in PepcDB or PDB records
row,Sequence,soluble on expression in E. coli
1,MLPAVDDRCSGGYAGDVVADETIIDLAGPSEGLGVRPDKQRAAAYAGAYYIRDKTHQLGTGEKMREVTKRGFGIGVTAVSRVGSADDLYSVSPVITAISIDKPSPGSTVALGRALQMHQANGFAASVKTKANARLPYLCVDMGYSVRPDFTTVVHDHGFAPVMRYPVSRQTVWASEKPEFGSQSPGPVQINSAFYCPAALPLARQRRLVRRLNELLDEQDGFEAHDQALQKLLPLLMGTNSRPLKFVSKRKRSPETIPTYQIDLVCPAVQGRVKCPLKPESLIIAFDQPEVKPTWSADRYRCCSKSQIRHTYSSEQWKLAQWGMVPGSWEHAIYYEAARSLTEQRFSIMKSQHLSGREHLKWSPRREPMISVIIALWIAATNLAIQDSHVAKMPRPSSIKKQKRRLERDLGRALMSTPPRT,not soluble
2,MLPCLNEEESLPAVLAAIPAGYRALVVDNNSTDDTATVAARHGAQVVVEPRPGYGSAVHAGVLAATTPIVAVIDADGSMDAGDLPKLVAELDKGADLVTGRRRPVAGLHWPWVARVGTVVMSWRLRTRHRLPVHDIAPMRVARREALLDLGVVDRRSGYPLELLVRAAAAGWRVVELDVSYGPRTGGKSKVSGSLRGSIIAILDFWKVISLEHHHHHH,not soluble
3,MLPDVQLLKPEVPIGLSRVGATGIKKLVEVQREGKRPIILISTFDVFVDLPAHLKGVNLSRNFEVIDEVLETLTAKPIENIEDLVVEIADHLLKRHEYATKAEARMNSELIMRKRTPKTGQRTQEVVKIFGEATLGRDGSKVIMVGVEVTGITACPCAQELVKASSAERLAKMGFDEETIQKILDAIPVATHNQRGRATLKVQVTDSFKVPIAKLIDVAKSSMSYETYEILKREDELAVVEAAHRNTRFVEDGVRYMAMELLKTFPNAPDDILVFLRQENEESIHQHNVVAERFATFGELRNEIGSPDASGSSAD,soluble
4,MLPETDLRRVAAAAAAMHRVAEIRRTRVSGRMDNHERRVGTEWVVTLQGADFPVTIAADHDGSTVSFDDGSSMRVTSDWTPLEHHHHHH,not soluble
5,MLPEYGPLAPSEEELHLFGDVDRLKVLEIGCGSGHSLKYLDEKQAGELWGIDLSTKQIEAAQTVLKDSKAPVTLFESPMEVNPGLPTDYFDIVFSIYALGWTTNLTKTLENVYRYLKPGGSFIFSWEHPMYNRVRQHQHGLTVDKSYHEEGAYAHEAWSSPAIMQQYRLSTYLNHLIDHGFKVERVIEDVCLADAQKHTNGWYGYEKAQMIPTTLIIKCLKQLEHHHHHH,soluble
6,MLPKPGTYYLPWEVSAGQVPDGSTLRTFGRLCLYDMIQSRVTLMAQHGSDQHQVLVCTKLVEPFHAQVGSLYIVLGELQHQQDRGSVVKARVLTCV,not soluble
7,MLPKYEQIKQDLLREIKNHTFIPGDKFYSEADIKRKYAVSSITAVKALNELTSAGYLYRIQGKGTFVSKSKVSQNVKFSDIELHSLDSEKVKVLSIEEDNQAEILKELGLPANASYYRIKRVRYSEDTPFLVHITHLPKKLVKEPLSKDLTAYASVYERVRKDFSVDLFSLASVETNEIVFPEDAELLNLLQLSFREPAVKQVKHSYLADGSVAEYIISYKHWKYFKTKIEVEAE,not soluble
8,MLPLIKRLFSSAPKDGEGAQKKWPFSYVVVLLLAGVALMAASHWANSGEEAEAKPSAGQPSAPAEPAFLASKETKEKVIAAYEERYEKELKAALEAIEGVDDVTVVVNLDSTELKLYEKKRSTQQQTTEESDKEGGKRTIENESTNEEVIIIHNGEEETPLVVATKKPDIRGVLVVAKGADNLQIKKWIVEAVTRVLNVPSYRVAVLPKK,not soluble
9,MLPSHRSPDSATHDRIRKMTMNAMPQTAAQNETLHTCSIIVDDAQDFSPMLLDAGRDDTLISESMIPQIRTVAALIAAERHDFSRSSPAEFTDAADFFAARILVLGVRRFHLDVSLLQILKTANSRARRFAEKHRLFFTPAQAELSLNKHKNRRLLTVETEHEVENKGNPVANSLAFVRKLHTLPL,not soluble
10,MLPSQHKLSNSEQFRATIRKGKRAGRSTVVLHFYAEATAGNLATAGGPRFGLVVSKAVGNAVTRHRVSRQLRHVVIAMKDQFPASSHVVVRALPPAATASSEELRADVQAALDKLNRKR,not soluble
11,MLPVTYRLIPQSGVSTYRLNTADTPVFPDIPEHAPNPSRLRLAHDSLAINSEFRLEPECVVEYLISGAGGIDPDTEIDDDTYDECYDELSSVLQNAYTQSETFRRLMNYAYEKELHDVEQRWLLGAGEAFETTVAQEHFKLSEGRKVICLNLDDSDDSYTEHYESNEGRQLFDTKRSFIHEVVHALTHLQDKEENHPRGPVVEYTNIILKEMGHPSPPRMVYIFNK,not soluble
12,MLQKPKSVKLRALRSPRKFGVAGRSCQEVLRKGCLRFQLPERGSRLCLYEDGTELTEDYFPSVPDNAELVLLTLGQAWQGYVSDIRRFLSAFHEPQVGLIQAAQQLLCDEQAPQRQRLLADLLHNVSQNIAAETRAEDPPWFEGLESRFQSKSGYLRYSCESRIRSYLREVSSYPSTVGAEAQEEFLRVLGSMCQRLRSMQYNGSYFDRGAKGGSRLCTPEGWFSCQGPFDMDSCLSRHSINPYSNRESRILFSTWNLDHIIEKKRTIIPTLVEAIKEQDGREVDWEYFYGLLFTSENLKLVHIVCHKKTTHKLNCDPSRIYKPQTRLKRKQPVRKRQLEHHHHHH,not soluble
13,MLQLFSFLAIFYISLSNCDPQILRLKSIPSPIPNVEEGAKLYLASNDDNGLLKNIQVQTAGGSFTLDQINVNTANGNAKSIVIDGGLVISTSNSNADTSGLTGFLYLTTKKQADDPAFSVYVIKQAQTVSTTQPNSTVVILNTELDNDAFFDHIEPLQIGLDYWYFTASEPMSMTMESKYVSDLVYTTTSVNTTGLVVNDFLFQEHVVKFQLDLTRVRTIGTLVSAIPIASQINVIFNQGGGISAQR,not soluble
14,MLQPPFNIKVTNITLTTAVVTWQPPILPIEGILVTFGRKNDPSDETTVDLTSSITSLTLTNLEPNTTYEIRIVARNGQQYSPPVSTTFTTGSLEHHHHHH,soluble
15,MLRFGFAAVLLVLAGCSAPMGPEALGPGSYQAAPDPGPFLTPADAQRAFPAVVARVEPVAEAICRERTRGVPCDFQIAVDARPGLDPNAFQTLDDYGRPVIGLTLSLISDARNVDELAFVVGHETAHHILGHIPRQRETALTGAVLAGVLAQMGGADAQTIRSVQEFGANVGARSYSKNFELEADGLGTEIAIRAGYDPVHGAQFFTRLPDPGDTFLGSHPPNAQRIAAVRRAAESIGYVSAWLEHHHHHH,not soluble
16,MLRHLGQLSVAHRGSGLHDAYVVNPAQQLDPELAPPPVVYVLETSYVALLLKNPEDVGYQLARRHDYCFALAPHLCILYSRHRVCERVKHHHSHPPPATCSS,soluble
17,MLRIAYRLLWRALLPFALLRLWWRGRKEPGYRQHVGERLGFYRPRANPDHPLLWVHAVSVGETRAAQPLIDALLARFPQHDVLLTHMTPTGRRTGAEFAAQRNGRVIQAYLPYDLAGAVDRFLRHFQPRLGLLMETEIWPVLIERAHHAGVPMVLVNGRLSERSHRRTARLGQAARETYAQLAAVLAQTPDDADRYRSLGVPRVRVTGNLKFDITPHVDQIMMGRALRDALGGRAVWVAASTREGEEPLLLDAWHAHRAQHAGRRHPLLILVPRHPQRFDEVAQLAGLKGLRVARRSALSLSAAEAPDAAGVLDADILLGDSMGEMALYYAAAQAAFIGGSLLPMGGQNLIEACAVGTPVVIGPHTFNFAQATRDAVAAGACVQVEDAACAVRVIDQWLSDADAREAASRAALAFAATHGGATARTVEAVASLVLPSLLEHHHHHH,not soluble
18,MLRISRDLVIDEDDIEIGFVRASGPGGQNVNKVATSAQLRFDTRKLTLPEDATIRLARIAGQRMTKDGVIVIHAQRFRTQERNRQDAIDRLVEILSEALEHHHHHH,not soluble
19,MLRLARKGLQTAVVRSYAKDVKFGAEGRQAMLVGVNLLADAVSVTMGPKGRNVIIEQSWGSPKITKDGVTVAKSIDLKDKYQNLGAKLIQDVANKANEEAGDGTTCATVLARAIAKEGFESIRQGGNAVEIRRGVMNAVEVVVAELKKISKKVTTPEEIAQVATISANGDTVVGNLISDAMKKVGTTGVITVKDGKTLNDELELIEGMKFDRGYISPYFITSAKGAKVEYEKALVLLSEKKISQVQDIVPALELANKLRRPLVIIAEDVDGEALTTLVLNRLKVGLQVVAIKAPGFGDNRKNTLKDMGIATGATIFGDDSNLIKIEDITANDLGEVDEVTITKDDTLLLRGRGDQTEIEKRIEHITDEIEQSTSDYEKEKLNERLAKLSKGVAVLKIGGGSEVEVGEKKDRVTDALCATRAAVEEGIVPGGGVALLRSLTALKNYKAANEDQQIGVNIVKKALTQPIATIVKNAGLEPSSIIDEVTGNSNTSYGYDALNGKFVDMFEAGIIDPTKVVRTALQDASGVASLLATTECVVTEIPKEEAVGGPAGGMGGMGGMGGMGGMGF,not soluble
20,MLRLRTPSRIHITLIDLNGSIGRVDGGVGLALEEPHIEIKAKESETFVLKGEPINRERFEIAAAKMAEYCGRGAEIEVVSDYDAHVGLGSGTQISLAVGRAFSELYGLNLTTRQIAEIMGRGGTSGIGVAVFDHGGLVVDGGHSTKEKKSFLPSSASRAKPAPMIARLDFPDWNVVLAIPDLKGFFGEREVNLFQKSCPVPLEDVREICHLILMKMLPAVVEADLDEFGKALKRIQELGFKKAEVEQYGELIKGCFDLADCIGMSSTGPTVYAITDSNAGGIERSLRDYFAEKGYECRTIVTKARNRGVEIEV,not soluble
21,MLRPVETPTREIKKLDGLWAFSLDRENCGIDQRWWESALQESRAIAVPGSFNDQFADADIRNYAGNVWYQREVFIPKGWAGQRIVLRFDAVTHYGKVWVNNQEVMEHQGGYTPFEADVTPYVIAGKSVRITVCVNNELNWQTIPPGMVITDENGKKKQSYFHDFFNYAGIHRSVMLYTTPNTWVDDITVVTHVAQDCNHASVDWQVVANGDVSVELRDADQQVVATGQGTSGTLQVVNPHLWQPGEGYLYELCVTAKSQTECDIYPLRVGIRSVAVKGEQFLINHKPFYFTGFGRHEDADLRGKGFDNVLMVHDHALMDWIGANSYRTSHYPYAEEMLDWADEHGIVVIDETAAVGFNLSLGIGFEAGNKPKELYSEEAVNGETQQAHLQAIKELIARDKNHPSVVMWSIANEPDTRPQGAREYFAPLAEATRKLDPTRPITCVNVMFCDAHTDTISDLFDVLCLNRYYGWYVQSGDLETAEKVLEKELLAWQEKLHQPIIITEYGVDTLAGLHSMYTDMWSEEYQCAWLDMYHRVFDRVSAVVGEQVWNFADFATSQGILRVGGNKKGIFTRDRKPKSAAFLLQKRWTGMNFGEKPQQGGKQ,soluble
22,MLRTQFEEELLNLHNQFYEMGMMVSSAVHKSVKAYINHDKKLAQEVIDRDIEINDMEVKLEKKSFEMIALQQPVTTDLRMIITVMKASSDLERMADHAVSIAKSTIRLKGETRIPEIEKEISDMSDYVKKMVDNVLIAYVKTDQKDARMIAQMDDRTNEYFDSIYKHAVEAMKANPETVISGTDYLHVAQYLERIGDYVTNICEWIVYLATGKITELNSNRDEQF,not soluble
23,MLRVLIVDDEMLARDELAYLLKRTNDEMEINEAENIESAFDQMMDQKPDLLFLDVDLSGENGFDIAKRLKKMKHPPAIVFATAYDQYALKAFEVDALDYLTKPFDEERIQQTLKKYKKVNRDIVETEQNSHAGQHKLALSVGESIVIVDTKDIIYAGTEDGHVNVKTFDHSYTVSDTLVVIEKKLPDSDFIRVHRSFVVNTEYIKEIQPWFNSTYNLIMKDGSKIPVSRTYAKELKKLLHI,not soluble
24,MLSFVIPAHDEAALIGDTLQCLHACAQAMQLDHEVIVVADACEDATAAIARSHGAQVLEVLEVQLRHIAATRNAGAQAAQGEHLLFLDADTSINPQVVGAALAALDAGAVGGGARVHLQGKRVWSERVAQAVFGWFFRVSGIAPGCFLFCTRAAFVSAGGFDTRYYAGEDVALSRALARCGRFVILRQTVHTSDRKLRSFSKREHLGLLLRFLWRGRRMLQTRDALGFWYQRRRLEHHHHHH,not soluble
